The text below walks through data of patent US20030176331A1.

In this experiment the target is high molecular weight glycoprotein gp240 on melanoma cells (human) (UniProt Q6UVK1). Nature of the experiment: cell-based or functional assay.
UniProt Q6UVK1, sequence (Q6UVK1 30-2322): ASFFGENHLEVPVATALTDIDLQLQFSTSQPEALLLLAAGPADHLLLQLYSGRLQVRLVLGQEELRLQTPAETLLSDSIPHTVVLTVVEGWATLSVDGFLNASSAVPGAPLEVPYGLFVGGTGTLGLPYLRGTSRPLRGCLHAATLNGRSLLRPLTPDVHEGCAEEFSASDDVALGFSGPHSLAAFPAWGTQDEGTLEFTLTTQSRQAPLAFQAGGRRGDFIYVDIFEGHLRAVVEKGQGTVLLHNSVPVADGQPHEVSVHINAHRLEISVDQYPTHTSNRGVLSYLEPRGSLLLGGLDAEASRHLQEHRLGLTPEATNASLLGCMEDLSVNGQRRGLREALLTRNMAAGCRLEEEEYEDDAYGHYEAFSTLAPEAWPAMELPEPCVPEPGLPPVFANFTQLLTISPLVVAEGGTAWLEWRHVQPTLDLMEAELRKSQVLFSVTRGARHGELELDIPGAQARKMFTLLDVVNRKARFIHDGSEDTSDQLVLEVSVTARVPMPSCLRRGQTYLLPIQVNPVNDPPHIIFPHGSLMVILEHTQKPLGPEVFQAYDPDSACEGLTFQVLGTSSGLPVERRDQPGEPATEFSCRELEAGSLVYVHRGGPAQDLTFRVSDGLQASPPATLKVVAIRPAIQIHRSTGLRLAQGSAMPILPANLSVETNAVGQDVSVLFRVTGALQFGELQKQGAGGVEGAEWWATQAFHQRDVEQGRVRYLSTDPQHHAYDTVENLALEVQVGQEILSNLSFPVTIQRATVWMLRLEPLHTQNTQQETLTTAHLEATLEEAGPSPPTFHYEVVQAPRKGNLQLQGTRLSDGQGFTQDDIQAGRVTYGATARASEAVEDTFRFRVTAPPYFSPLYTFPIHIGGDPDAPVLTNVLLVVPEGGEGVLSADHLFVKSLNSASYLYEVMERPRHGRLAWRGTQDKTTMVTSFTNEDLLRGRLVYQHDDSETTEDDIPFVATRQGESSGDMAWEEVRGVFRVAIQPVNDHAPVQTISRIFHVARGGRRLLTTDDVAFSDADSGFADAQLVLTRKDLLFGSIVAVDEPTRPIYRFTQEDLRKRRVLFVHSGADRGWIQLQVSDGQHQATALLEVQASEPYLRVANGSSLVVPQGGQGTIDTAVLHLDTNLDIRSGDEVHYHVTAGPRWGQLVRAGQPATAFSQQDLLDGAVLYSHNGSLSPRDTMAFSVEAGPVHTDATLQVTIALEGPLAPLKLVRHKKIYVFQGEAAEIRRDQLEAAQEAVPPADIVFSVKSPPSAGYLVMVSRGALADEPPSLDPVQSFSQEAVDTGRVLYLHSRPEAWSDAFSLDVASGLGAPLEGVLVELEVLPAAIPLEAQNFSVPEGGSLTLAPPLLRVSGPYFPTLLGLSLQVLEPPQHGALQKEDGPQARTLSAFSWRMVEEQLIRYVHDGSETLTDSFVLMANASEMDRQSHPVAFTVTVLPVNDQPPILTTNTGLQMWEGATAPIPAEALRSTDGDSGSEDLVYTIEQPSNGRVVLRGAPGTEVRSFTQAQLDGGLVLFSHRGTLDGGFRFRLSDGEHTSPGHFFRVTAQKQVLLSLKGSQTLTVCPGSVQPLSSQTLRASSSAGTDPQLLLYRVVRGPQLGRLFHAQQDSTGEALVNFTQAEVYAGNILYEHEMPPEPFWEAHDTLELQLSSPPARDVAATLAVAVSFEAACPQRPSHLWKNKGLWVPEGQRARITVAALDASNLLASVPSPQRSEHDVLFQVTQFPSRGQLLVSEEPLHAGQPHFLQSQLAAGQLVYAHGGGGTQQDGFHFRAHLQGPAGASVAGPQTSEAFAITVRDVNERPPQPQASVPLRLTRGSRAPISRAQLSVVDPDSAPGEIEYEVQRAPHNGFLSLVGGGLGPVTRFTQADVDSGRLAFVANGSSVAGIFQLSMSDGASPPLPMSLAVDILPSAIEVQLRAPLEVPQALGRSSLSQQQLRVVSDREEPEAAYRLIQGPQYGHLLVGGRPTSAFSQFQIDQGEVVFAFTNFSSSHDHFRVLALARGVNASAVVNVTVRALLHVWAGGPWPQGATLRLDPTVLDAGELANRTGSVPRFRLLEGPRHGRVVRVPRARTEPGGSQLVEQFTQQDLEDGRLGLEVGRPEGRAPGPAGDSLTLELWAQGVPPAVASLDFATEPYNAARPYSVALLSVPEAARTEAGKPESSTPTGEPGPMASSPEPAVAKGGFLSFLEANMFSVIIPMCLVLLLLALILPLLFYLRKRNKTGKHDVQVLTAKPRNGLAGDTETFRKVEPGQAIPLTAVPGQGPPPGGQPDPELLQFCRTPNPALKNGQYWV

For IgG ZME-018-gelonin chemical conjugate, the IC50, 72 h in vitro cytotoxicity on antigen-positive A375 human melanoma cells worked out at 8 nM.
For scfvMEL/rGel fusion construct, the IC50, 72 h in vitro cytotoxicity on antigen-positive A375 human melanoma cells amounted to 8 nM.
